Results reported in the nanobody polyreactivity screen of Harvey et al. (2022).

test: yeast display, Sf9 membrane polyspecificity reagent, FACS + sequencing; frameworks hold sequencing errors
Outline: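 Galactose-induced (36–48 hours) yeast carrying a synthetic nanobody display library were exposed to 10% biotinylated, detergent-solubilized Sf9 membrane reagent at 4 °C for 1 hour. FACS followed streptavidin microbead enrichment, using low and high (top ~1%) gates for expression (anti-HA) and reagent binding (streptavidin). Colony PCR, MiSeq 2 × 250 sequencing and CDR-length filtering followed. Labels for polyreactivity reflect the gate of origin.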

| Sequence | polyreactivity (PSR sort gate) |
| --- | --- |
| QVQLVESGGGLVQAGGSLRLSCAASGLILGYYAMGWYRQAPGKERELVATIRRGASTYYADSVKGRFTISRDNAKNTVYLQMNSLKPEDTAVYYCAADTERSLAGGMYYWGEGTQVTVSS | low polyreactivity |
| QVQLVESGGGLVQAGGSLRLSCAASGLILNYYTMGSYRQAPGKERELVATISSSTGSTYYADSVKGRFTISRDNAKNTVYLQMNSLKPEDTAVYYCAADHWSYWQIYEYWGQGTQVTVSS | low polyreactivity |
| QVQLVESGGGLVQAGGSLRLSCAASGLILVGNTMGWYRQAPGKERELVATITSGGRTYYADSVKGRFTISRDNAKNTVYLQMNSLKPEDTAVYYCAKRAFSYVGGQQDRKENYYYWGQGTQVTVSS | high polyreactivity |
| QVQLVESGGGLVQAGGSLRLSCAASGLILVPNTMGWYRQAPGKARELVAAISYSGGGTYYADSVKGRFTISRDNAKNTVYLQMNSLKPEDTAVYYCAAYDKRESAPYGYWGQGTQVTVSS | low polyreactivity |
| QVQLVESGGGLVQAGGSLRLSCAASGLILYYYTMGWYRQAPGKERELVAAINSGGNTYYADSVKGRFTISRDNAKNTVYLQMNSLKPEDTAVYYCNAYRVRYKRSYDYWGQGTQVTVSS | high polyreactivity |
| QVQLVESGGGLVQAGGSLRLSCAASGLIRDGKVMGWYIQAPGKERELVAAINTSGGSTYYADSVKGRFTISRDNAKNTVYLQMNSLKPEDTAVYYCAARYPSDYDYWGQGTQVTVSS | low polyreactivity |
| QVQLVESGGGLVQAGGSLRLSCAASGLIVGGYTMGWYRQAPGKERDLVAAIDSADSTYYADSVKGRFTISRDNAKNTVYLQMNSLKPEDTAVYYCATYWFYSGPAFSLRETGGVNYWGQGTQVTVSS | low polyreactivity |
| QVQLVESGGGLVQAGGSLRLSCAASGLIYVTNAMGCYRQAPGKERELVAAITSVGSTNYADSVKGRFTISRDNAKNTVYLQMNSLKPEDTAVYYCAAGVIADQSIGPTWSGSEGDYWGQGTQVTVSS | low polyreactivity |
| QVQLVESGGGLVQAGGSLRLSCAASGLNFDKNAMGWYRQAPGNERELLAAITRSSGTTYYADSVKGRFTISRDNAKNTVYLQMNSLKPEDTAVYYCAARFIWGYWGVGYYSWGQGTQVTVSS | low polyreactivity |
| QVQLVESGGGLVQAGGSLRLSCAASGLNFGSNAMGWYRQAPGKERELVAAITWSGGSTYYADSVKGRFTISRDNAKNTVYLQMNSLKPEDTAVYYCAAKRWYRYYWGQGTQVTVSS | high polyreactivity |
| QVQLVESGGGLVQAGGSLRLSCAASGLNFSEYAMGWYRQAPGKERELVAAIRSDGGSTYYADSVKGRFTISRDNAKNTVYLQMNSLKPEVTAVYYCNAPYRRSAKFRRYVYDYWGQGTQVTVSS | high polyreactivity |
| QVQLVESGGGLVQAGGSLRLSCAASGLNFYRYPMGWNRQAPGKERELVAAITRNGGSTYYADSVKGRFTISRDNANNTVYLQMNSLKPEDIAVYYCAADLYSAVYFSRWSDYWGQGTQVTVSS | high polyreactivity |
| QVQLVESGGGLVQAGGSLRLSCAASGLNFYYYAMGWYRQAPGKERELVATISSRGGSTNYADSVKGRFTISRDNAKNTVYLQMNSLKPEDTAVYYCAADRRARVWTYRSYDYWGQGTQVTVSS | high polyreactivity |
| QVQLVESGGGLVQAGGSLRLSCAASGLNIRYYAMGWYRQAPGKERELVAAISYNGGSTYYADSVKGRFTISRDNAKNTVYLQMNSLKPEDTAVYYCAARLYGRYGYWGQGTQVTVSS | high polyreactivity |
| QVQLVESGGGLVQAGGSLRLSCAASGLSLGVYTLGWYRQAPGKEREFVASINYGGGSTYYADSVKGRFTISRDNAKNTVYLQMNSLKPEDTAVYYCNARSRWGGTRLYSYDYWGQGTQVTVSS | low polyreactivity |
| QVQLVESGGGLVQAGGSLRLSCAASGLTFAENAMGWYRQAPGKERELVAAISASGGSTYYADSVKGRFTISRDNAKNTVFLQMNSLKPEDTAVYYCATRVAFLWPRRDYDYWGQGTQVTVSS | low polyreactivity |
| QVQLVESGGGLVQAGGSLRLSCAASGLTFAINTMGWYRQAPGKERELVAAITGSGGSTYYADSVKGRFTISRDNAKNTVYLQMNSLKPEDTAVYYCAAELLYVQGYAMDYWGQGTQVTVSS | low polyreactivity |
